Ends that are not written are not given here.

20 molecules from patent publication US20020164667A1 (VEGENICS, published 2002) can be followed below.

In this experiment the target is T1, human VEGFR3-Fc fusion protein (human, UniProt P35916 25-329, limits assumed).
T1 construct: domain: first three Ig homology domain of the extracellular portion; Coated on microtiter wells at 1 ug/ml; not shown: Fc tail of human IgG1, cloned in frame after the VEGFR3 Ig homology domains
T1 sequence (looked up): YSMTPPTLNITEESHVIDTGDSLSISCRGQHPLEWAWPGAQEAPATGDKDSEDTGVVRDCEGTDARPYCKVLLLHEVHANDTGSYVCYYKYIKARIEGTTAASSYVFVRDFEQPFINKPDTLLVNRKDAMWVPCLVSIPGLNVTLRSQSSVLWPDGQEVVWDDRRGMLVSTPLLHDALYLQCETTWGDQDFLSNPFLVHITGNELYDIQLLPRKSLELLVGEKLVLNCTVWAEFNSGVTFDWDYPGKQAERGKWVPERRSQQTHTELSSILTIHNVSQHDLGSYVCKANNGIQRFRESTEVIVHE
In words: phage attachment assay, VEGFR3-Fc-coated versus BSA-blocked microtiter wells. As for the experimental part:
VEGFR3-Fc fusionprotein (1 μg/ml) was coated on microtiter wells (96-well plate) overnight at 4° C. Wells were then saturated with 5% BSA. In the first panning, the libraries were incubated overnight at 4° C. in 50 mM TBS buffer (Tris-HCl/0.1M NaCl, pH 7.5) containing 1% BSA. After extensive washing, the bounded phages were eluted with a low pH buffer (0.1M glycine-HCl, 0.1%BSA, 0.05% phenol red, pH2.2)(Koivunen et al., Methods Mol. Biol. 129:3-17,1999; Koivunenet al, Biotechnol., 18(8):768-74,1999; Smoth et al., Methods Enzymol., 217:228-357, 1993). In subsequent pannings, the amplified phages using the K91kan E. coli.(Koivunen et al., Methods Mol. Biol. 129:3-17, 1999) were allowed to bind for 1 h at room temperature. Randomly selected clones from the fourth round of panning were amplified overnight and sequenced using ABIPRISM 310 Genetic Analyzer. The binding of each clone to VEGFR-3 was verified by an attachment assay, in which the cloned phage were incubated for 60 minutes in VEGFR3-Fc-coated or BSA-blocked microtiter wells. Thewells were washed ten times with TBS containing 0.5% Tween-20. The bound phages were titered by calculating the number of colonies.

B1: CMDPWGGWC (SEQ ID NO: 63) (peptide)
peptide: CMDPWGGWC
notes: also called CX7C library clone
Turning to B1, the binding result is given as “binds”.

B2: SGYWWDTWF (SEQ ID NO: 36) (peptide)
peptide: SGYWWDTWF
notes: also called X9 library clone
On to B2, for which the binding result was “binds”.

B3: WFSASLRFR (SEQ ID NO: 43) (peptide)
peptide: WFSASLRFR
notes: also called X9 library clone
As for B3, the binding result is given as “binds”.

B4: CVWDHGVC (SEQ ID NO: 65) (peptide)
peptide: CVWDHGVC
As to B4, the binding result is given as “binds”.

B5: CHKWQKRQC (SEQ ID NO: 62) (peptide)
peptide: CHKWQKRQC
notes: as for B1
In the case of B5, the binding result is “binds”.

B6: CYGFLWGMC (SEQ ID NO: 60) (peptide)
peptide: CYGFLWGMC
modifications: not fully specified (bridges); cysteine pairing not given here; also: displayed on fUSE5 phage as coat protein fusion, flanking residues not given here
notes: as for B1
With B6, the binding result is on record as “binds”.

B7: RWRGNAYPG (SEQ ID NO: 41) (peptide)
peptide: RWRGNAYPG
notes: also called X9 library clone
B7: the binding result is “binds”.

B8: CRALDSALAC (SEQ ID NO: 58) (peptide)
peptide: CRALDSALAC
notes: also called CX8C library clone
B8: the binding result is on record as “binds”.

B9: CRKVWDIRC (SEQ ID NO: 64) (peptide)
peptide: CRKVWDIRC
notes: as for B1
As to B9, the binding result was “binds”.

B10: CYGFEAAWC (SEQ ID NO: 59) (peptide)
peptide: CYGFEAAWC
notes: as for B1
Consider B10, for which the binding result was “binds”.

B11: YSSSMRWRH (SEQ ID NO: 40) (peptide)
peptide: YSSSMRWRH
notes: also called X9 library clone
Turning to B11, the binding result was “binds”.

B12: CWQLGRNWIC (SEQ ID NO: 55) (peptide)
peptide: CWQLGRNWIC
notes: as for B8
As to B12, the binding result is given as “binds”.

B13: CSRWRILGC (SEQ ID NO: 61) (peptide)
peptide: CSRWRILGC
notes: as for B1
With B13, the binding result was “binds”.

B14: CAGKASSLWC (SEQ ID NO: 57) (peptide)
peptide: CAGKASSLWC
notes: as for B8
As for B14, the binding result was “binds”.

B15: CGQMCTVWCSSGC (SEQ ID NO: 66) (peptide)
peptide: CGQMCTVWCSSGC
notes: also called CX3CX3CX3C library clone
With B15, the binding result is given as “binds”.

B16: FVGWTKVLG (SEQ ID NO: 39) (peptide)
peptide: FVGWTKVLG
notes: also called X9 library clone
As for B16, the binding result is on record as “binds”.

B17: SCYWRDTWF (SEQ ID NO: 37) (peptide)
peptide: SCYWRDTWF
notes: also called X9 library clone
As to B17, the binding result was “binds”.

B18: CVEVQITQEC (SEQ ID NO: 56) (peptide)
peptide: CVEVQITQEC
notes: as for B8
As for B18, the binding result is listed as “binds”.

B19: KVGWSSPDW (SEQ ID NO: 38) (peptide)
peptide: KVGWSSPDW
notes: also called X9 library clone
For B19, the binding result is listed as “binds”.

B20: SAVFRGRWL (SEQ ID NO: 42) (peptide)
peptide: SAVFRGRWL
notes: also called X9 library clone
B20: the binding result is reported as “binds”.
